From patent US20210332131A1 (TIGATX, published 2021)
Each block holds one binder with its values, some of them ahead of it.

What was measured:
CD20 = target: T1, CD20 (UniProt P11836 1-297, limits assumed); assay: flow cytometry, bispecific supernatant on SKBR3-CD20 cells, without or after pre-block of CD47 with m9, detection anti-IgA PE, GeoMFI; SKBR3 WT (CD20-) panel as comparison
T1 construct: whole, on cells
T1 sequence (looked up): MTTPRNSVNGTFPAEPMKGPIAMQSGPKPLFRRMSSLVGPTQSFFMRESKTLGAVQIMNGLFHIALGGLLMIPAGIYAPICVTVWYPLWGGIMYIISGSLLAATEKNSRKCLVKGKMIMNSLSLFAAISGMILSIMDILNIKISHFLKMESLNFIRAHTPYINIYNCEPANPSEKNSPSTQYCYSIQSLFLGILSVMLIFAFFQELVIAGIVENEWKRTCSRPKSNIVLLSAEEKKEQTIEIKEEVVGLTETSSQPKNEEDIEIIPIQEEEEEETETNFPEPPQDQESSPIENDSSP
Protocol: (§1) After the pre-block the IgA antibodies were applied as described above. Samples were analyzed on a BD Canto II, and data has been analyzed using FlowJo (BD).
Cells were fixed and measured by FACS.

CD47 [1] = target: T2, CD47 (human, UniProt Q08722 19-323); assay: flow cytometry, bispecific supernatant on SKBR3 WT (CD20-/CD47+) and SKBR3-CD20 cells, without or after pre-block of CD47 with mIgG1 anti-CD47 PerCP-Cy5.5, detection anti-IgA PE, GeoMFI
T2 construct: whole, on cells; also called Cluster of Differentiation 47; human CD47
Protocol: as §1
Cells were fixed and measured by FACS.

CD47 [2] = target: T2, CD47; assay: flow cytometry on SKBR3 WT cells (CD20-/CD47+), detection anti-IgA PE, GeoMFI
Protocol: as §1

CD47 [3] = target: T2, CD47; assay: flow cytometry on SKBR3 WT cells (CD20-/CD47+), detection anti-IgA PE
Protocol: as §1

CD47 [4] = target: T2, CD47; assay: flow cytometry on human erythrocytes (CD235a+), bispecific supernatant, detection anti-human IgA, % positive cells
Protocol: A Histopaque/ficoll isolation was performed to separate the erythrocytes from the PMN/PBMC. Plasma, PBMC, ficoll, histopaque and PMN have been discarded. The remaining pellet of erythrocytes were washed in PBS, spun for 5 minutes at 2400 rpm and pellet was resuspended in 5 mL PBS. […] Dilutions are done in FACS buffer (1% BSA in PBS). Incubated for 30 minutes at RT in the dark, excess unbound antibody was washed away with FACS buffer. 40 uL was added in FACS buffer diluted detection antibody (goat F(ab)′2 anti-human IgA-FITC (Southern Biotech; dilution 1:100), incubated for 30 minutes at RT in the dark, excess unbound antibody was washed away with FACS buffer. Samples were fixed by adding 1% PFA to pelleted cells. Measure on Canto II (BD), gating on CD235-positive events.

T2 sequence (Q08722 19-323): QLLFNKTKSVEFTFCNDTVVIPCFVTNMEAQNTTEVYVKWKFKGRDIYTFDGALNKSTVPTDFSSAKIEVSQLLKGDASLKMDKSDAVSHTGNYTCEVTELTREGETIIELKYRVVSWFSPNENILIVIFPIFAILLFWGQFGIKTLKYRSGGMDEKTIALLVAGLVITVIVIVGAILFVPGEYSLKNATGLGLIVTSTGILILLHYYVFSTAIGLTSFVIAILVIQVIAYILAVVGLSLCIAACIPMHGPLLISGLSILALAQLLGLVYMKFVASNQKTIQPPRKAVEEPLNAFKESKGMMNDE

binding result (CD20): binds
binding result (CD47 [1]): no binding
B1: DVD-IgA bispecific antibody #1 (5A3M5-Obi) (bispecific antibody)
heavy: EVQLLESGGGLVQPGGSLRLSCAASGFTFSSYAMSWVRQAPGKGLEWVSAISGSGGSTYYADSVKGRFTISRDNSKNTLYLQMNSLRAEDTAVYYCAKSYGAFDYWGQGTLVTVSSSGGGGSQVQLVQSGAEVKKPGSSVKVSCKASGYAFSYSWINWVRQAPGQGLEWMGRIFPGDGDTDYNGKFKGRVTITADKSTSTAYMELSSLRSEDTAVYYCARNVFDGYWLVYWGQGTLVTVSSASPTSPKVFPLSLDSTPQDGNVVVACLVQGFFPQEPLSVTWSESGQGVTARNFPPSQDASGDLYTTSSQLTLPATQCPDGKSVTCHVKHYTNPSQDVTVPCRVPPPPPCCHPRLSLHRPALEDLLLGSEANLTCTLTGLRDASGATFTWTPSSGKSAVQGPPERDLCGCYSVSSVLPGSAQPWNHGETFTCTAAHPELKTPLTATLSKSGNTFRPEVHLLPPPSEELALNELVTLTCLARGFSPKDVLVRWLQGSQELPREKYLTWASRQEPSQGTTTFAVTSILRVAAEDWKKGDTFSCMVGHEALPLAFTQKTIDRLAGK
light: DIQMTQSPSSLSASVGDRVTITCQASQDINKYLNWYQQKPGKAPKLLIYGASRLETGVPSRFSGSGSGTDFTFTISSLQPEDIATYYCQQKHPRYPRTFGQGTKVEIKSGGGGSDIVMTQTPLSLPVTPGEPASISCRSSKSLLHSNGITYLYWYLQKPGQSPQLLIYQMSNLVSGVPDRFSGSGSGTDFTLKISRVEAEDVGVYYCAQNLELPYTFGGGTKVEIKRTVAAPSVFIFPPSDEQLKSGTASVVCLLNNFYPREAKVQWKVDNALQSGNSQESVTEQDSKDSTYSLSSTLTLSKADYEKHKVYACEVTHQGLSSPVTKSFNRGEC
notes: Tetravalent homodimer, outer domain CD47 (5A3M5), inner domain CD20 (Obinituzumab)

binding result (CD20): binds
B2: DVD-IgA scFv_LC bispecific antibody #5 (5A3M5-scFv: Obi_LC) (bispecific antibody)
heavy: QVQLVQSGAEVKKPGSSVKVSCKASGYAFSYSWINWVRQAPGQGLEWMGRIFPGDGDTDYNGKFKGRVTITADKSTSTAYMELSSLRSEDTAVYYCARNVFDGYWLVYWGQGTLVTVSSASPTSPKVFPLSLDSTPQDGNVVVACLVQGFFPQEPLSVTWSESGQGVTARNFPPSQDASGDLYTTSSQLTLPATQCPDGKSVTCHVKHYTNPSQDVTVPCRVPPPPPCCHPRLSLHRPALEDLLLGSEANLTCTLTGLRDASGATFTWTPSSGKSAVQGPPERDLCGCYSVSSVLPGSAQPWNHGETFTCTAAHPELKTPLTATLSKSGNTFRPEVHLLPPPSEELALNELVTLTCLARGFSPKDVLVRWLQGSQELPREKYLTWASRQEPSQGTTTFAVTSILRVAAEDWKKGDTFSCMVGHEALPLAFTQKTIDRLAGK
light: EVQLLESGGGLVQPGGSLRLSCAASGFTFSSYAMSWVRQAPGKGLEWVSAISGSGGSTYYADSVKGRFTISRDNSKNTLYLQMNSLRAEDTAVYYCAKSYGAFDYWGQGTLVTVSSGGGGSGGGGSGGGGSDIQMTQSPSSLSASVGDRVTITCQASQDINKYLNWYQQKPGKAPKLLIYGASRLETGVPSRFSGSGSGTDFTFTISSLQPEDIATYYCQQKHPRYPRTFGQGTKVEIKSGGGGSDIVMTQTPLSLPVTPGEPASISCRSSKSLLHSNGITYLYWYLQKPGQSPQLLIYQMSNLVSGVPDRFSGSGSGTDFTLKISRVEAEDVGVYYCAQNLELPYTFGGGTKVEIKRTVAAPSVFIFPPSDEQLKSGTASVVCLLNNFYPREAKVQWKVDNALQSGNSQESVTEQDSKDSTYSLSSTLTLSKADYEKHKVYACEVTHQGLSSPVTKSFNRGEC
notes: Tetravalent homodimer; 5A3M5 (CD47) scFv on the Obinituzumab light chain

binding result (CD20): binds
B3: DVD-IgA scFv_LC bispecific antibody #6 (Obi-scFv: 2.3D11_LC) (bispecific antibody)
heavy: QVQLQESGPGLVKPSGTLSLTCAVSGVSIRSINWWNWVRQPPGKGLEWIGEIYHSGSTNYNPSLKSRVTISVDKSKNQFSLKLNSVTAADTAVYYCARDGGIAVTDYYYYGLDVWGQGTTVTVSSASPTSPKVFPLSLDSTPQDGNVVVACLVQGFFPQEPLSVTWSESGQGVTARNFPPSQDASGDLYTTSSQLTLPATQCPDGKSVTCHVKHYTNPSQDVTVPCRVPPPPPCCHPRLSLHRPALEDLLLGSEANLTCTLTGLRDASGATFTWTPSSGKSAVQGPPERDLCGCYSVSSVLPGSAQPWNHGETFTCTAAHPELKTPLTATLSKSGNTFRPEVHLLPPPSEELALNELVTLTCLARGFSPKDVLVRWLQGSQELPREKYLTWASRQEPSQGTTTFAVTSILRVAAEDWKKGDTFSCMVGHEALPLAFTQKTIDRLAGK
light: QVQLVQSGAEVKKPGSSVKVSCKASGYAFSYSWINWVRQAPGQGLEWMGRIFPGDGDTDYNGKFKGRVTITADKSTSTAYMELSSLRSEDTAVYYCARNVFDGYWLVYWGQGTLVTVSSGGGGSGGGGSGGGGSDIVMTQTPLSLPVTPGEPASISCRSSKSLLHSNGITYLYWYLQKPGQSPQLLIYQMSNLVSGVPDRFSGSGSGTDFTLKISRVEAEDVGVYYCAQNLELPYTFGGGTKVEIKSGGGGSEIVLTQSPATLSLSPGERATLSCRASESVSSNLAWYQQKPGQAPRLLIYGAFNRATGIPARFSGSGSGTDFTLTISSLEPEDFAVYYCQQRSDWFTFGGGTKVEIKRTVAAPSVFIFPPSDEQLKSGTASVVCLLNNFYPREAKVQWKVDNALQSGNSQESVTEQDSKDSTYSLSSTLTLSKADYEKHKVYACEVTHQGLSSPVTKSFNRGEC
notes: Tetravalent homodimer; Obinituzumab (CD20) scFv on the 2.3D11 light chain; also called bispecific #6

binding result (CD47 [2]): binds
B4: 2.3D11-IgA2 (antibody, V domains shown)
VH: QVQLQESGPGLVKPSGTLSLTCAVSGVSIRSINWWNWVRQPPGKGLEWIGEIYHSGSTNYNPSLKSRVTISVDKSKNQFSLKLNSVTAADTAVYYCARDGGIAVTDYYYYGLDVWGQGTTVTVSS
VL: EIVLTQSPATLSLSPGERATLSCRASESVSSNLAWYQQKPGQAPRLLIYGAFNRATGIPARFSGSGSGTDFTLTISSLEPEDFAVYYCQQRSDWFTFGGGTKVEIK
notes: May be the same as IgA3.0-2.3D11; also called bivalent monospecific antibody 2.3D11; anti-CD47 antibody 2.3D11

binding result (CD20): binds
B5: DVD-IgA bispecific antibody #2 (Obi-2.3D11) (bispecific antibody)
heavy: QVQLVQSGAEVKKPGSSVKVSCKASGYAFSYSWINWVRQAPGQGLEWMGRIFPGDGDTDYNGKFKGRVTITADKSTSTAYMELSSLRSEDTAVYYCARNVFDGYWLVYWGQGTLVTVSSSGGGGSQVQLQESGPGLVKPSGTLSLTCAVSGVSIRSINWWNWVRQPPGKGLEWIGEIYHSGSTNYNPSLKSRVTISVDKSKNQFSLKLNSVTAADTAVYYCARDGGIAVTDYYYYGLDVWGQGTTVTVSSASPTSPKVFPLSLDSTPQDGNVVVACLVQGFFPQEPLSVTWSESGQGVTARNFPPSQDASGDLYTTSSQLTLPATQCPDGKSVTCHVKHYTNPSQDVTVPCRVPPPPPCCHPRLSLHRPALEDLLLGSEANLTCTLTGLRDASGATFTWTPSSGKSAVQGPPERDLCGCYSVSSVLPGSAQPWNHGETFTCTAAHPELKTPLTATLSKSGNTFRPEVHLLPPPSEELALNELVTLTCLARGFSPKDVLVRWLQGSQELPREKYLTWASRQEPSQGTTTFAVTSILRVAAEDWKKGDTFSCMVGHEALPLAFTQKTIDRLAGK
light: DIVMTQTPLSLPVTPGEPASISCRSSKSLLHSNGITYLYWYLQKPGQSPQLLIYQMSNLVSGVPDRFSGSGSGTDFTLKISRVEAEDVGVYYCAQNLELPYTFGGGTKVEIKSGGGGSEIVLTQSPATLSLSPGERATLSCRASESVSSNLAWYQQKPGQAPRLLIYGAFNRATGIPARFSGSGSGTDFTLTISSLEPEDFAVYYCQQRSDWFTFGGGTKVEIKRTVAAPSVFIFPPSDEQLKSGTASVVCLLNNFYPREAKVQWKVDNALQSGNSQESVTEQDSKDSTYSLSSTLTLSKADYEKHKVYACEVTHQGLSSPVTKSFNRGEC
notes: Tetravalent homodimer, outer domain CD20 (Obinituzumab), inner domain CD47 (2.3D11); also called DVD-IgA Obi-2.3D11

B6: Obi-IgA3.0 (antibody, V domains shown)
VH: QVQLVQSGAEVKKPGSSVKVSCKASGYAFSYSWINWVRQAPGQGLEWMGRIFPGDGDTDYNGKFKGRVTITADKSTSTAYMELSSLRSEDTAVYYCARNVFDGYWLVYWGQGTLVTVSS
VL: DIVMTQTPLSLPVTPGEPASISCRSSKSLLHSNGITYLYWYLQKPGQSPQLLIYQMSNLVSGVPDRFSGSGSGTDFTLKISRVEAEDVGVYYCAQNLELPYTFGGGTKVEIKR
notes: Monospecific anti-CD20 IgA3.0 control; also called IgA3.0-Obi; anti-CD20 Obi antibody
binding result (CD47 [3]): no binding (tested: 1 ug/mL (from paragraph 462, not on the sheet))

binding result (CD20): binds
binding result (CD47 [4]): binds
B7: DVD-IgA scFv_HC bispecific antibody #4 (Obi-scFv: 2.3D11_HC) (bispecific antibody)
heavy: QVQLVQSGAEVKKPGSSVKVSCKASGYAFSYSWINWVRQAPGQGLEWMGRIFPGDGDTDYNGKFKGRVTITADKSTSTAYMELSSLRSEDTAVYYCARNVFDGYWLVYWGQGTLVTVSSGGGGSGGGGSGGGGSDIVMTQTPLSLPVTPGEPASISCRSSKSLLHSNGITYLYWYLQKPGQSPQLLIYQMSNLVSGVPDRFSGSGSGTDFTLKISRVEAEDVGVYYCAQNLELPYTFGGGTKVEIKSGGGGSQVQLQESGPGLVKPSGTLSLTCAVSGVSIRSINWWNWVRQPPGKGLEWIGEIYHSGSTNYNPSLKSRVTISVDKSKNQFSLKLNSVTAADTAVYYCARDGGIAVTDYYYYGLDVWGQGTTVTVSSASPTSPKVFPLSLDSTPQDGNVVVACLVQGFFPQEPLSVTWSESGQGVTARNFPPSQDASGDLYTTSSQLTLPATQCPDGKSVTCHVKHYTNPSQDVTVPCRVPPPPPCCHPRLSLHRPALEDLLLGSEANLTCTLTGLRDASGATFTWTPSSGKSAVQGPPERDLCGCYSVSSVLPGSAQPWNHGETFTCTAAHPELKTPLTATLSKSGNTFRPEVHLLPPPSEELALNELVTLTCLARGFSPKDVLVRWLQGSQELPREKYLTWASRQEPSQGTTTFAVTSILRVAAEDWKKGDTFSCMVGHEALPLAFTQKTIDRLAGK
light: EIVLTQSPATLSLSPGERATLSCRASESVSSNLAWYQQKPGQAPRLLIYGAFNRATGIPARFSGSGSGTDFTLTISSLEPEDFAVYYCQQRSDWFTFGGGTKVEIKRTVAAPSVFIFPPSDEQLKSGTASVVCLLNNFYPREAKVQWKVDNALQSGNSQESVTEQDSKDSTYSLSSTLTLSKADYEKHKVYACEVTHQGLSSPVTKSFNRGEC
notes: Tetravalent homodimer; Obinituzumab (CD20) scFv on the 2.3D11 heavy chain; Tested as raw HEK293F supernatant; also called bispecific #4

binding result (CD20): binds
B8: DVD-IgA scFv_HC bispecific antibody #3 (5A3M5-scFv: Obi_HC) (bispecific antibody)
heavy: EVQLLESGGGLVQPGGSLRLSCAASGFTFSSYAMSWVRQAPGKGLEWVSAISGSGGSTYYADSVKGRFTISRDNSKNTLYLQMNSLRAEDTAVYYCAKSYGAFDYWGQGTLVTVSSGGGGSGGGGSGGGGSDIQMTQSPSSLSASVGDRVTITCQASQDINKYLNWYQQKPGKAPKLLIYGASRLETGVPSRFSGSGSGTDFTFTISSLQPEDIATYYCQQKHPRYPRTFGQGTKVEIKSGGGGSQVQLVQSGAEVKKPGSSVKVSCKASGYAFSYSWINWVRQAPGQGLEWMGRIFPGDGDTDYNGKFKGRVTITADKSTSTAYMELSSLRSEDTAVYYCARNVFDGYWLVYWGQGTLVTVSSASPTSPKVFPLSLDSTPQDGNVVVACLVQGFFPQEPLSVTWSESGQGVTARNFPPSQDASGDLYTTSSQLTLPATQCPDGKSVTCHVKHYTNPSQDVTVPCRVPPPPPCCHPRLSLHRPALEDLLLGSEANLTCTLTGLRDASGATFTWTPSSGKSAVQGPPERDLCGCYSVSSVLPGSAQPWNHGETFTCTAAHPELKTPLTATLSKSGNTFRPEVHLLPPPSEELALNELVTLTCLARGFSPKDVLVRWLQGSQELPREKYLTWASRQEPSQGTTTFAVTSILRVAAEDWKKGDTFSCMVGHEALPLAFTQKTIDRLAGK
light: DIVMTQTPLSLPVTPGEPASISCRSSKSLLHSNGITYLYWYLQKPGQSPQLLIYQMSNLVSGVPDRFSGSGSGTDFTLKISRVEAEDVGVYYCAQNLELPYTFGGGTKVEIKRTVAAPSVFIFPPSDEQLKSGTASVVCLLNNFYPREAKVQWKVDNALQSGNSQESVTEQDSKDSTYSLSSTLTLSKADYEKHKVYACEVTHQGLSSPVTKSFNRGEC
notes: Tetravalent homodimer; 5A3M5 (CD47) scFv on the Obinituzumab heavy chain; Tested as raw HEK293F supernatant
